Assay results: paper PMC10705379 (bioRxiv, 2023)
Numbering of substitutions follows the chain as printed. Names and notes keep the numbering of the source.

T1: MBP-Epe1 (S. pombe, UniProt O94603 1-948)
T1 sequence: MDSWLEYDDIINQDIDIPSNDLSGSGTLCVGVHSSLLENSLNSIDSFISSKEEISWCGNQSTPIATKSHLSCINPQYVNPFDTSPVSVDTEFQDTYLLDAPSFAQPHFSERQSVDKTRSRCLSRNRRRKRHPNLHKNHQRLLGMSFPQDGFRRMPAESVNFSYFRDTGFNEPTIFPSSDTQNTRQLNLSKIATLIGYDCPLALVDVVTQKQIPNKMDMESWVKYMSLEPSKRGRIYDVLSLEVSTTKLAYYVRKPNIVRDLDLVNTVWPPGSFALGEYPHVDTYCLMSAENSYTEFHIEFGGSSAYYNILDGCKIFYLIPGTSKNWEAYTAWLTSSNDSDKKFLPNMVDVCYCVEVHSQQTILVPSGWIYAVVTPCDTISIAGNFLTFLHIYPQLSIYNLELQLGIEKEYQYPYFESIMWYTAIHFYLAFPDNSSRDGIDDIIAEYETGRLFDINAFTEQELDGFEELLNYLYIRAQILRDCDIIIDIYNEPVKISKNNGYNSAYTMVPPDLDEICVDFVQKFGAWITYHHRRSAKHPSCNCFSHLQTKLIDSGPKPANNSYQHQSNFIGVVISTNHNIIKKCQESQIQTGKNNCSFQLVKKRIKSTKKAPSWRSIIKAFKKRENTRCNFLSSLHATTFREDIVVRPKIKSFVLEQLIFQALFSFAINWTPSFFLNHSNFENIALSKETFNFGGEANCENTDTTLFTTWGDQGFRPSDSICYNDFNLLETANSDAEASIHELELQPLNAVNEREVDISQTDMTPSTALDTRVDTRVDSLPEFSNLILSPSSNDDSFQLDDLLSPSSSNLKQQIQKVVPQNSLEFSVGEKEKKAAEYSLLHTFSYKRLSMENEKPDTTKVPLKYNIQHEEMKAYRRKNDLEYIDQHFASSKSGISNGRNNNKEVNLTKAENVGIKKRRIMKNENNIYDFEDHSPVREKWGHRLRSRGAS

B1: Swi6-WT (recombinant, full length) (natural protein)
chain: MKKGGVRSYRRSSTSKRSVIDDDSEPELPSMTKEAIASHKADSGSSDNEVESDHESKSSSKKLKENAKEEEGGEEEEEDEYVVEKVLKHRMARKGGGYEYLLKWEGYDDPSDNTWSSEADCSGCKQLIEAYWNEHGGRPEPSKRKRTARPKKPEAKEPSPKSRKTDEDKHDKDSNEKIEDVNEKTIKFADKSQEEFNENGPPSGQPNGHIESDNESKSPSQKESNESEDIQIAETPSNVTPKKKPSPEVPKLPDNRELTVKQVENYDSWEDLVSSIDTIERKDDGTLEIYLTWKNGAISHHPSTITNKKCPQKMLQFYESHLTFRENE
B2: FLAG-Swi6-WT (recombinant) (natural protein)
chain: B1 chain
B3: Swi6-T278K (recombinant, full length) (natural protein)
chain: B1 chain with T278K
B4: Swi6-T278Y (recombinant, full length) (natural protein)
chain: B1 chain with T278Y

Key:
[1] = tested on: Swi6-WT (Schizosaccharomyces pombe); assay: EMSA; conditions: histone H3K9me3
H3K9me3 mononucleosomes = assay: native gel or EMSA
mass photometry = molecular target: the molecule itself; assay: mass photometry
MBP-Epe1 = molecular target: T1, MBP-Epe1; assay: pull-down

Molecule | Kd (H3K9me3 mononucleosomes) [nM] | specificity for H3K9me3 over H3K9me0 mononucleosomes (H3K9me3 mononucleosomes) [fold] | Kd (mass photometry) [nM] | stoichiometry N (mass photometry) | further results
H3K9me3 mononucleosome (Epicypher 16-0315-20) | – | – | – | – | Kd [1]: 50 nM
Swi6-T278Y (recombinant, full length) (from UniProt P40381 1-328) (natural protein) | 39 | 2.3 | – | – | –
B1 | 50 | 2.4 | 0.38 | 2 | –
B2 | – | – | – | – | binding result (MBP-Epe1): binds
B3 | – | – | 0.2 | 2 | –
B4 | – | – | 0.27 | 2 | –
